Source: US20250051467A1 (JIANGSU HENGRUI PHARMACEUTICALS, published 2025)

Assays:
h-FAP-His [1] = biological target: T1, h-FAP-His (human, UniProt Q12884 26-760); test: ELISA, human FAP-His coated
T1 construct: range 26-760; Bought recombinant protein with a His tag; also called human FAP-His protein; FAP recombinant protein with a His tag
Experimental: A FAP recombinant protein with a His tag was directly used for coating. After the antibodies were added, a secondary antibody (an HRP-conjugated anti-human IgG antibody) and the HRP substrate TMB were added to measure the binding activity of the antibodies to the antigen. The assay comprises the following steps: A […] solution of human FAP-His protein was used to coat a 96-well microplate at 100 μL/well, and the plate was incubated overnight at 4° C. After a thorough wash, a blocking solution was added at 200 μL/well, and the plate was incubated at room temperature for 2 h. After a thorough wash, dilutions of test anti-FAP antibodies were added at 100 μL/well. The plate was incubated at room temperature for 1 h. After a thorough wash, a 1:20,000 dilution of an HRP-labeled goat anti-human IgG secondary antibody was added at 100 μL/well. The plate was incubated at room temperature for 1 h. After a thorough wash, TMB was added at 100 μL/well, and the plate was incubated in the dark for 15 min. 0.16 M sulfuric acid was added at 50 μL/well. The OD value at 450 nm was measured on a Thermo MultiSkanFc microplate reader, and the binding EC₅₀ values of the anti-FAP antibodies were calculated.

human FAP on CHO cells = biological target: T2, human FAP on CHO cells (human, UniProt Q12884 1-760); test: FACS, CHO cells overexpressing human FAP
T2 construct: whole, on cells; also called CHO cell line overexpressing human FAP; CHOK1/FAP
Experimental: (§1) A FACS assay was used to measure the binding properties of anti-FAP antibodies on cells. The assay comprises the following steps: A CHO cell line overexpressing human FAP was constructed and plated (1E5/well). The test antibodies were added at 100 μL/well. The highest concentration was 100 nM. A 5-fold dilution was performed, yielding 8 concentrations in total. The plate was incubated at 4° C. for 1 h. Anti-hIgG Alexa Fluor-647 was added as a secondary antibody in the ratio of 1:500. The plate was incubated at 4° C. for 30 min, and a FACS assay was performed. Antibodies that bind to FAP can mark cells. The relation between the percentage of the marked cells that over-express human FAP among all cells and the antibody concentration is shown in FIG. 1. The relation between the percentage of the marked cells that over-express mouse FAP among all cells and the antibody concentration is shown in FIG. 2.

h-FAP-His [2] = biological target: T1, h-FAP-His; test: SPR, h-FAP-His analyte; upper end tied to Ab15 by Table 6
Experimental: (§2) A CM5 sensor chip was used, and HBS-EP+buffer solution (10 mM HEPES, 150 mM NaCl, 3 mM EDTA, 0.05% surfactant P20) was used as the mobile phase. An anti-human IgG (Fc) antibody was made into a […] solution in a 10 mM sodium acetate buffer solution (pH 5.0) and immobilized by amino coupling. The test antibodies were diluted in HBS-EP+buffer solution and captured by the anti-human IgG (Fc) antibody on chip channels. h-FAP-His was dissolved in HBS-EP+buffer solution to prepare an analyte, and the analyte was serially diluted 2-fold. The diluted antibodies were passed through the experimental and reference channels at a flow rate of […], with 1 min of binding and 15 min of disassociation. 10 mM Glycine pH 1.5 was passed as a regeneration buffer solution for 30 s at a flow rate of […]. Data were analyzed. […] However, the binding affinities of the other anti-FAP antibodies obtained by screening at the same time in the present disclosure, such as Ab2, Ab4 and Ab5 (sequences not shown), for the antigen are lower than that of 28H1.

h-FAP-His [3] = biological target: T1, h-FAP-His; test: SPR, antibody captured by anti-human IgG Fc, h-FAP-His analyte
Experimental: as §2

mouse FAP on CHOK1 cells = biological target: T3, mouse FAP on CHOK1 cells (mouse, UniProt P97321 1-761); test: FACS, percent of marked cells overexpressing mouse FAP, anti-hIgG Alexa Fluor-647 secondary antibody
T3 construct: whole, on cells; also called cell surface mouse FAP
Experimental: as §1

T3 sequence (P97321 whole entry): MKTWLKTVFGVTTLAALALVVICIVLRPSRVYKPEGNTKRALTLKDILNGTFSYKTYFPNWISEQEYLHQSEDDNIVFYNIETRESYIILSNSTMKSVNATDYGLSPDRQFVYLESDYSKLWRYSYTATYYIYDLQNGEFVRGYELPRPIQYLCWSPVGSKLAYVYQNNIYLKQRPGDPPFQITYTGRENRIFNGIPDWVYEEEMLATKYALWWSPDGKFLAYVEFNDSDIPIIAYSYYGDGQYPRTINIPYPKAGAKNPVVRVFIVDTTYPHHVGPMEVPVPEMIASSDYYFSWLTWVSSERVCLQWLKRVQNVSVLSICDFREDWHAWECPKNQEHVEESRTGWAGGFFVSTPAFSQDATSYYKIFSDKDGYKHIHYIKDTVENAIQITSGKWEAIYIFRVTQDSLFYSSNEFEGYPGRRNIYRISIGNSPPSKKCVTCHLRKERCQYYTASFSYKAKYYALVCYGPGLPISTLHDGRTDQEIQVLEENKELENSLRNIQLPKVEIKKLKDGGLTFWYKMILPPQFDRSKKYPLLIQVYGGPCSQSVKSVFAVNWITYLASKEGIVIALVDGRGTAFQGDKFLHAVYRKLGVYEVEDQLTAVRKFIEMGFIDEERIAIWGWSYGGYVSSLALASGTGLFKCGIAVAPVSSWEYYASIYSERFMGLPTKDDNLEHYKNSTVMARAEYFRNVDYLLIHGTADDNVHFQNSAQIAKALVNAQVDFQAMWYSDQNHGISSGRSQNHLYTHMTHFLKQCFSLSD

EC50 (h-FAP-His [1]): 321000 ng/mL
EC50 (human FAP on CHO cells): 0.486 ng/mL
fold affinity over 28H1 (h-FAP-His [2]): 3 to 6 times
Kd (h-FAP-His [3]): 215 pM
Ratio of KD of 28H1 to KD of test antibody (h-FAP-His [3]): 6.1
Ratio of Kd of 28H1 to Kd of test antibody (h-FAP-His [3]): 2.43
koff (h-FAP-His [3]): 0.000105 s⁻¹
kon (h-FAP-His [3]): 488000 M⁻¹ s⁻¹
EC50 (read off the curve) (mouse FAP on CHOK1 cells): ~8 ng/mL
B1: Ab15 (antibody, human IgG1, kappa, L234A L235A, V domains shown)
VH: QMQLVQSGAEVKKPGASVTVSCRASGYSFADHFIHWVRQAPGQGFQWMGWINPNRGVTHHAQDFQGRVAMTRDMSTDTVYMELTSLRSDDTAVYYCARDESLTARPYYFYGFDVWGQGTLVTVSS
VL: EIVLTQSPSSVSASVGDRVTITCRASQGISSWLAWYQQKPGKAPKSLIYAASSLQSGVPSRFSGSGSGTDFTLTISSLQPEDFATYYCQQANSFPPTFGGGTKVEIKR
notes: Fully human, IgG1 / kappa; also called anti-FAP antibody Ab15
